Article PMC9525012, “Characterization of sabatolimab, a novel immunotherapy with immuno-myeloid activity directed against TIM-3 receptor” (Immunotherapy Advances, 2022)
Where “and” joins values, the source holds several entries; their conditions need not be identical. Equal entries are not always repeated.

B1: Sabatolimab, humanized anti-TIM-3 monoclonal antibody (hIgG4, S228P) (antibody, V domains shown)
VH: QVQLVQSGAEVKKPGSSVKVSCKASGYTFTSYNMHWVRQAPGQGLEWMGDIYPGNGDTSYNQKFKGRVTITADKSTSTVYMELSSLRSEDTAVYYCARVGGAFPMDYWGQGTTVTVSS
VL: AIQLTQSPSSLSASVGDRVTITCRASESVEYYGTSLMQWYQQKPGKAPKLLIYAASNVESGVPSRFSGSGSGTDFTLTISSLQPEDFATYFCQQSRKDPSTFGGGTKVEIKR
notes: whole heavy chain as printed; whole kappa light chain as printed; IgG4/kappa; humanized from the murine monoclonal antibody 22C1; also called MBG453; sabatolimab whole antibody; source: CHO cells, transiently produced (told of the ten selected humanized clones)

Legend:
[1] = target: human TIM-3-Fc fusion protein (human) (UniProt Q8TDQ0); assay: other; competition with SULFO-TAG galectin-9, MSD
[2] = target: T1, recombinant human TIM-3/His (human, UniProt Q8TDQ0 22-202); assay: SPR; Biacore; sabatolimab captured (~50 RU) by a human Fab capture antibody amine-coupled on a CM5 chip; TIM-3/His as analyte, 90 nM diluted 1:3, seven concentrations, HBS-EP+ buffer; 1:1 binding model, double reference subtraction; conditions: both partners purified
T1 construct: T-cell immunoglobulin domain and mucin domain-3 (TIM-3), human; Probably the extracellular domain (surmised); also called human recombinant TIM-3; source: bought: Sino Biological Inc

[3] = target: T2, human TIM-3 expressed on 300.19 cells (human, UniProt Q8TDQ0 22-301); assay: flow cytometry on cells; 300.19 cells expressing human or cynomolgus TIM-3 incubated with titrated sabatolimab at 4°C for 4 hours; PE anti-hIgG secondary; Kd from best-fit binding curves (GraphPad Prism); conditions: one partner purified
T2 construct: TIM-3, human, expressed on the surface of 300.19 cells; Also used for the functional rows on cells that express human TIM-3 (Raji hTIM-3 o.e., HNT-34, dendritic cells); source: 300.19 cells engineered to express human TIM-3 (lab of Gordon Freeman)

[4] = target: cynomolgus monkey TIM-3 expressed on 300.19 cells (cynomolgus monkey); assay: as above

Molecule	IC50 [1] [nM]	Kd [2]	Kd [3] [nM]	Kd [4] [nM]
sabatolimab Fab'2	9.81			
B1		0.176 nM and 0.162 nM and 0.163 nM	0.5 ± 0.1	0.9
